{
  "source": "paper PMC11109196",
  "about": "(2024)",
  "binders": {"B1": {"name": "HmAb64 (antibody, V domains shown)", "VH": "QVQLVQSGAEVKKPGASVKVSCKASGYTFTSYDITWVRQAPGQGLEWMGWISAYNGDTNYAQRLQGRVTMTTDTSTSTAYMELRSLRSDDTAVYYCARAKHTVLVTAMRWFDPWGQGTLVTVSS", "VL": "DIQMTQSPSSLSASVGDRVTITCRASQSISNYLNWYQQKPGKAPKLLISATSSLQSGVPSRFSGSGSGTDFTLTISSLQPDDFATYYCQQSYSTPWTFGQGTKLEIK"}},
  "assay_in_all_cases": "BLI",
  "key": {"Bal gp120 [1]": {"target": "Bal gp120 (HIV-1 isolate Bal)"}, "[2]": {"target": "T1, gp120 A2 (clade A, 92UG037.8) (HIV-1 isolate 92UG037.8)"}, "[3]": {"target": "T2, gp120 Czm (clade C, 96ZM652) (HIV-1 isolate 96ZM652)"}, "Bal gp120 [4]": {"target": "Bal gp120 (HIV-1 isolate Bal)", "remark": "listed apart in the source"}, "[5]": {"target": "T1, gp120 A2 (clade A, 92UG037.8)", "remark": "listed apart in the source"}, "[6]": {"target": "T2, gp120 Czm (clade C, 96ZM652)", "remark": "listed apart in the source"}, "[7]": {"target": "gp120 AE (clade E, 93TH976.17) (HIV-1 isolate 93TH976.17)"}, "[8]": {"target": "gp120 B (clade B, 92US715.6) (HIV-1 isolate 92US715.6)"}},
  "data": [
    {"binder": "B1", "values": [
      {"measurement": "koff", "setting": "Bal gp120 [1]", "result": 0.000459, "unit": "s⁻¹"},
      {"measurement": "koff", "setting": "[2]", "result": 0.000641, "unit": "s⁻¹"},
      {"measurement": "koff", "setting": "[3]", "result": 0.000454, "unit": "s⁻¹"},
      {"measurement": "Kd", "setting": "Bal gp120 [4]", "result": 16, "unit": "nM"},
      {"measurement": "Kd", "setting": "[5]", "result": 39.4, "unit": "nM"},
      {"measurement": "Kd", "setting": "[6]", "result": 22.5, "unit": "nM"},
      {"measurement": "Kd", "setting": "[7]", "result": 20, "unit": "nM"},
      {"measurement": "koff", "setting": "[7]", "result": 0.000423, "unit": "s⁻¹"},
      {"measurement": "Kd", "setting": "[8]", "result": 22.9, "unit": "nM"},
      {"measurement": "koff", "setting": "[8]", "result": 0.000684, "unit": "s⁻¹"}
    ]}
  ]
}
